According to publication PMC4974930:
Read-outs that look alike come from different tables or passages of the source.

Tests used:
Assay in all cases: cross-linking; 0.3 mg/ml purified F1 mutant in buffer A (20 mM HEPES pH 7.4, 100 mM KCl, 5 mM MgCl2, 5% glycerol) with trans-ABDM (azobenzene-dimaleimide), at least 2 h at room temperature, quenched with 1 mM DTT; 8% SDS-PAGE, intensity of the α/β dimer band relative to the monomer bands
[1] = target: E. coli F1 ATPase β subunit, cysteine-less, 6xHis-tagged, V409C (E. coli)
[2] = target: E. coli F1 ATPase β subunit, cysteine-less, 6xHis-tagged, V409C (E. coli); remark: listed apart in the source
[3] = target: E. coli F1 ATPase β subunit, cysteine-less, 6xHis-tagged, S327C (E. coli)
[4] = target: E. coli F1 ATPase β subunit, cysteine-less, 6xHis-tagged, G412C (E. coli)
[5] = target: E. coli F1 ATPase β subunit, cysteine-less, 6xHis-tagged, Q324C (E. coli)

E. coli F1 ATPase α subunit, cysteine-less, A380C (from UniProt P0ABB0 1-513) (natural protein)
crosslinking ratio [1]: 0.3 | crosslinking ratio [2]: 0.4

E. coli F1 ATPase α subunit, cysteine-less, N369C (from UniProt P0ABB0 1-513) (natural protein)
crosslinking ratio [3]: 0.2

E. coli F1 ATPase α subunit, cysteine-less, G379C (from UniProt P0ABB0 1-513) (natural protein)
crosslinking ratio [4]: 0.3

E. coli F1 ATPase α subunit, cysteine-less, S338C (from UniProt P0ABB0 1-513) (natural protein)
crosslinking ratio [5]: 0.2
